Assay [1] deals with T1, recombinant human TfR1 (transferrin receptor protein 1) (human, UniProt P02786 89-760).
T1 construct: Recombinant protein in SPR and ELISA; they were assigned to this molecule; also called hTfR1; huTfR1
The assay is described as follows: Table 14, Fab-ASO300 conjugate; method not named.

Assay [2] addresses T2, recombinant cynomolgus monkey (Macaca fascicularis) TfR1 (cynomolgus monkey (Macaca fascicularis), UniProt Q5RDH6 87-760 (Pongo abelii entry), limits assumed).
T2 construct: Recombinant protein; also called cTfR1; cyTfR1
T2 chain: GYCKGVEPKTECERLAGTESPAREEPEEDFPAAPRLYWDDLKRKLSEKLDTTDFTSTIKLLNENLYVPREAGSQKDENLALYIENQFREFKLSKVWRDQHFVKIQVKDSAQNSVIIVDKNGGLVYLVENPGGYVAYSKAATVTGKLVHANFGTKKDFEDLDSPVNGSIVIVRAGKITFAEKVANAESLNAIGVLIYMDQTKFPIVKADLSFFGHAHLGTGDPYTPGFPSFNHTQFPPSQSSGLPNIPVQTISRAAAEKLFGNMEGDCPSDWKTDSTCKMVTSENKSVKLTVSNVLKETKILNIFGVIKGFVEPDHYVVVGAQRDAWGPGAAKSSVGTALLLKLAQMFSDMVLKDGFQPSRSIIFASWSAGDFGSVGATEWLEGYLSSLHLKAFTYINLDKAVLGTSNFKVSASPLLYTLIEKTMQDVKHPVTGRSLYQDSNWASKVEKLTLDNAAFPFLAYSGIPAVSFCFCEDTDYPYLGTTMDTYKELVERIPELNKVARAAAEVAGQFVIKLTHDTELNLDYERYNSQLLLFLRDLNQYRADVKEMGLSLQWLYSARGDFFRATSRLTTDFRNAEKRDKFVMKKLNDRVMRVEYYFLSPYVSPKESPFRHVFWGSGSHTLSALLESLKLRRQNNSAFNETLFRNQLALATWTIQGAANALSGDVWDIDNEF
The assay is described as follows: Table 14, Fab-ASO300 conjugate; method not named.

The target in assay [3] is T1, recombinant human TfR1 (transferrin …). The assay is described as follows: ELISA, recombinant TfR1 coated, Fab-ASO300 conjugate (row 'Conjugate binding affinity ELISA').
Assay [4] concerns the target T2, recombinant cynomolgus monkey (Macaca …). Described as above.
The target of assay [5] is T1, recombinant human TfR1 (transferrin …). The assay is described as follows: Biacore, d0; TfR1 species not stated.
Assay [6] has the same target. The assay is described as follows: Biacore, d25; TfR1 species not stated. Background: SPR reads the build-up and loss of mass on a sensor chip optically.
Assay [7] has the same target. The assay is described as follows: kinetic analysis (Biacore), Table 7; TfR1 species not stated.
For assay [8] the target is unchanged. The assay is described as follows: Table 14, unconjugated Fab, d9 (after 9 days at 40 C); method not named.
Assay [9] addresses T2, recombinant cynomolgus monkey (Macaca …). Described as above.
The target of assay [10] is T1, recombinant human TfR1 (transferrin …). The assay is described as follows: ELISA, recombinant TfR1 coated, unconjugated Fab (row 'Fab binding affinity ELISA'). On the technique in general: ELISA stands for enzyme-linked immunosorbent assay.
The target in assay [11] is T2, recombinant cynomolgus monkey (Macaca …). The description is as above.
Assay [12] deals with T1, recombinant human TfR1 (transferrin …). The assay is described as follows: Table 14, unconjugated Fab, d0; method not named (values equal ELISA row of Table 13).
Assay [13] concerns the target T2, recombinant cynomolgus monkey (Macaca …). The description is as above.
The target of assay [14] is T1, recombinant human TfR1 (transferrin …). The assay is described as follows: Avg KD, antibody alone; method not stated in Table 11.
Assay [15] addresses T2, recombinant cynomolgus monkey (Macaca …). The description is as above.
The target of assay [16] is T1, recombinant human TfR1 (transferrin …). The assay is described as follows: Carterra LSA SPR, 25 C; IgG captured, hTfR1 as analyte; 1:1 fit. Here is the method:
Selected anti-TfR1 antibodies were tested for their binding affinity to human TfR1 for measurement of Ka (association rate constant). Kd (dissociation rate constant), and K_D (affinity). […] The binding experiment was performed on Carterra LSA at 25° C. An anti-mouse IgG and anti-human IgG antibody "lawn" was prepared on a HC30M chip by amine coupling. The IgGs were captured on the chip. Dilution series of hTfR1, cyTfR1, and hTfR2 were injected to the chip for binding (starting from 1000 nM, 1:3 dilution, 8 concentrations).
Binding data were referenced by subtracting the responses from a buffer analyte injection and globally fitting to a 1:1 Langmuir binding model for estimate of Ka (association rate constant), Kd (dissociation rate constant), and K_D (affinity) using the Carterra™ Kinetics software, 5-6 concentrations were used for curve fitting.

B1: conjugate of humanized anti-TfR Fab 3A4 VH3/Vκ4 with DMPK-targeting oligonucleotide ASO300 (Fab, V domains shown)
VH: EVQLVQSGSELKKPGASVKVSCTASGFNIKDDYMYWVRQPPGKGLEWIGWIDPENGDTEYASKFQDRVTVTADTSTNTAYMELSSLRSEDTAVYYCTLWLRRGLDYWGQGTLVTVSS
VL: DIVMTQSPLSLPVTPGEPASISCRSSKSLLHSNGYTYLFWFQQRPGQSPRLLIYRMSNLASGVPDRFSGSGSGTDFTLKISRVEAEDVGVYYCMQHLEYPFTFGGGTKVEIKR
modifications: oligonucleotide ASO300 conjugated to the Fab via linker; residue and chain not stated
notes: also called 3A4 (VH3/Vk4) conjugate
One may read the EC50 as the concentration that produces a half-maximal response. B1: the “DMPK oligo conjugate binding” value in assay [1] was found to be 2.84 nM; in assay [2], 7.59 nM. In addition, the EC50 in assay [3] was found to be 2.8 nM; in assay [4], 7.6 nM.

B2: humanized anti-TfR Fab 3A4 VH3/Vκ4 (Fab, V domains shown)
VH: EVQLVQSGSELKKPGASVKVSCTASGFNIKDDYMYWVRQPPGKGLEWIGWIDPENGDTEYASKFQDRVTVTADTSTNTAYMELSSLRSEDTAVYYCTLWLRRGLDYWGQGTLVTVSS
VL: DIVMTQSPLSLPVTPGEPASISCRSSKSLLHSNGYTYLFWFQQRPGQSPRLLIYRMSNLASGVPDRFSGSGSGTDFTLKISRVEAEDVGVYYCMQHLEYPFTFGGGTKVEIKR
notes: also called 3A4 (VH3/Vk4)
A word on the Kd: it is a measure of binding affinity in units of concentration. On to B2, for which the Kd in [5] came to 1.5 nM; in [6] it was 1.35 nM; in [7] it was 1.5 nM. Further, the Binding affinity in assay [8] worked out at 0.46 nM; in assay [9] it was 878 nM; in assay [12] it was 1.5 nM; in [13], 122 nM. The figures for the EC50 in [10] and in assay [11] were 1.5 nM and 122 nM, respectively.

B3: 3-A4 mouse monoclonal anti-TfR antibody (antibody, V domains shown)
VH: EVQLQQSGAELVRPGASVKLSCTASGFNIKDDYMYWVKQRPEQGLEWIGWIDPENGDTEYASKFQDKATVTADTSSNTAYLQLSSLTSEDTAVYYCTLWLRRGLDYWGQGTSVTVSS
VL: DIVMTQAAPSVPVTPGESVSISCRSSKSLLHSNGYTYLFWFLQRPGQSPQLLIYRMSNLASGVPDRFSGSGSGTAFTLRISRVEAEDVGVYYCMQHLEYPFTFGGGTKLEIK
notes: Mouse monoclonal IgG; also called 3-A04
As a reminder, the kon is a measure of how fast the partners come together. Turning to B3, the Kd in [14] worked out at 0.436 nM; in assay [15], 2.32 nM; in [16] it was 0.436 nM. Also, in [16], the on-rate constant (kon) came out at 447000 M⁻¹ s⁻¹.

B4: conjugate of humanized anti-TfR Fab 5H12 VH5 (C33D)/Vκ4 with DMPK-targeting oligonucleotide ASO300 (Fab, V domains shown)
VH: QVQLVQSGAEVKKPGASVKVSCKASGYSFTDYDINWVRQAPGQGLEWMGWIYPGSGNTRYSERFKGRVTITRDTSASTAYMELSSLRSEDTAVYYCAREDYYPYHGMDYWGQGTLVTVSS
VL: DIVMTQSPDSLAVSLGERATINCRASESVDGYDNSFMHWYQQKPGQPPKLLIFRASNLESGVPDRFSGSGSGTDFTLTISSLQAEDVAVYYCQQSSEDPWTFGQGTKLEIKR
modifications: oligonucleotide ASO300 conjugated to the Fab via linker; residue and chain not stated
notes: also called 5H12 (VH5-C33D/Vk4) conjugate
For the molecule B4, the figures for the “DMPK oligo conjugate binding” value in assay [1] and in assay [2] were 110 nM and 10.2 nM, respectively. Also, the half-maximal effective concentration (EC50) in [3] turned out to be 110 nM; in [4], 10.2 nM.

B5: humanized anti-TfR Fab 5H12 VH5 (C33D)/Vκ4 (Fab, V domains shown)
VH: QVQLVQSGAEVKKPGASVKVSCKASGYSFTDYDINWVRQAPGQGLEWMGWIYPGSGNTRYSERFKGRVTITRDTSASTAYMELSSLRSEDTAVYYCAREDYYPYHGMDYWGQGTLVTVSS
VL: DIVMTQSPDSLAVSLGERATINCRASESVDGYDNSFMHWYQQKPGQPPKLLIFRASNLESGVPDRFSGSGSGTDFTLTISSLQAEDVAVYYCQQSSEDPWTFGQGTKLEIKR
notes: also called 5H12 (VH5-C33D/Vk4)
The term koff denotes the first-order rate constant of dissociation. Consider B5, for which the Kd in assay [5] was 0.991 nM; in assay [6], 3.01 nM; in assay [7] it was 0.991 nM. Also, in [7], the koff was 0.000672 s⁻¹. For the same molecule, the kon in assay [7] amounted to 678000 M⁻¹ s⁻¹. Moreover, the Binding affinity in assay [8] was determined as 92.3 nM; in assay [9], 0.63 nM; in assay [12], 6 nM; in assay [13] it was 3.5 nM. Further, the concentration giving a half-maximal response (EC50) in assay [10] is 6 nM; in assay [11] it was 3.5 nM.

B6: conjugate of humanized anti-TfR Fab 5H12 VH5 (C33Y)/Vκ3 with DMPK-targeting oligonucleotide ASO300 (Fab, V domains shown)
VH: QVQLVQSGAEVKKPGASVKVSCKASGYSFTDYYINWVRQAPGQGLEWMGWIYPGSGNTRYSERFKGRVTITRDTSASTAYMELSSLRSEDTAVYYCAREDYYPYHGMDYWGQGTLVTVSS
VL: DIVLTQSPDSLAVSLGERATINCRASESVDGYDNSFMHWYQQKPGQPPKLLIFRASNLESGVPDRFSGSGSRTDFTLTISSLQAEDVAVYYCQQSSEDPWTFGQGTKLEIKR
modifications: oligonucleotide ASO300 conjugated to the Fab via linker; residue and chain not stated
notes: also called 5H12 (VH5-C33Y/Vk3) conjugate
For B6, the EC50 in [3] was determined as 33.4 nM; in [4], 2.3 nM.

B7: humanized anti-TfR Fab 3M12 VH3/Vκ3 (Fab, V domains shown)
VH: QVQLQESGPGLVKPSQTLSLTCSVTGYSITSGYYWNWIRQPPGKGLEWMGYITFDGANNYNPSLKNRVSISRDTSKNQFSLKLSSVTAEDTATYYCTRSSYDYDVLDYWGQGTTVTVSS
VL: DIQMTQSPSSLSASVGDRVTITCRASQDISNFLNWYQQKPGQPVKLLIYYTSRLHSGVPSRFSGSGSGTDFTLTISSLQPEDFATYYCQQGHTLPYTFGQGTKLEIKR
notes: also called 3M12 (VH3/Vk3)
With B7, the Kd was found to be 0.345 nM in assay [5], 0.515 nM in assay [6] and 0.345 nM in assay [7]. Besides, the koff in assay [7] worked out at 8.34e-05 s⁻¹. In assay [7], the on-rate constant (kon) is 242000 M⁻¹ s⁻¹. Also, the Binding affinity in assay [8] is 1.49 nM; in [9], 15.6 nM; in assay [12] it was 0.6 nM; in assay [13] it was 4.7 nM. Moreover, the EC50 in assay [10] stood at 0.6 nM; in assay [11], 4.7 nM.

B8: humanized anti-TfR Fab 3M12 VH4/Vκ2 (Fab, V domains shown)
VH: QVQLQESGPGLVKPSQTLSLTCTVTGYSITSGYYWNWIRQPPGKGLEWIGYITFDGANNYNPSLKNRVSISRDTSKNQFSLKLSSVTAEDTATYYCTRSSYDYDVLDYWGQGTTVTVSS
VL: DIQMTQSPSSLSASVGDRVTITCRASQDISNFLNWYQQKPGQPVKLLIYYTSRLHSGVPSRFSGSGSGTDFTLTISSLQPEDFATYFCQQGHTLPYTFGQGTKLEIKR
notes: also called 3M12 (VH4/Vk2)
Turning to B8, the Kd in [5] is 0.396 nM; in assay [6] it was 0.51 nM; in [7], 0.396 nM. Besides, the koff in [7] came out at 9.98e-05 s⁻¹. Also, the kon in assay [7] was 252000 M⁻¹ s⁻¹. The Binding affinity came to 0.5 nM in assay [8], 5.01 nM in assay [9], 0.4 nM in assay [12] and 1.4 nM in [13]. Besides, the EC50 in [10] was determined as 0.4 nM; in assay [11], 1.4 nM.

These data come from patent US11844843 (DYNE THERAPEUTICS, dated 2023).
